Tests used:
Experiment in all cases: pull-down; GST-CTLA4 (201–215) immobilised on glutathione-sepharose beads, incubated overnight at 4°C with purified protein (1 µg MBP fusion, 1 µg NBEAL2, 0.2 µg LRBA, or purified 3xFlag-EGFP-NBEAL2 fragment); washed six times in 50 mM Tris-HCl pH 7.4, 150 mM NaCl, 1% Triton X-100; detected by blot (anti-NBEAL2, anti-LRBA, anti-Flag, anti-MBP)
Settings in all cases: both partners purified
[1] = target: T1, Purified full-length untagged LRBA (human, UniProt P50851-1 1-2863)
T1 construct: LRBA, human; also called 3xFlag-EGFP-SUMOstar-LRBA after SUMOstar protease; source: FreeStyle 293-F, transiently transfected, purified (GFP-Trap agarose, eluted with SUMOstar protease); not shown: 3xFlag, N-terminal, cleaved; EGFP, N-terminal, cleaved; SUMOstar, N-terminal, cleaved

[2] = target: T2, 3xFlag-EGFP-NBEAL2(1792-2754) (human, UniProt Q6ZNJ1-1 1792-2754)
T2 construct: NBEAL2, human, C-terminal fragment with the PH-BEACH-WD40 domains; The legend's upper limit 2794 differs from the plasmid's name; also called C-terminal fragment of NBEAL2; C-terminal (PH-BEACH-WD40 domains) fragment of NBEAL2; source: purified; not shown: 3xFlag, N-terminal, kept; EGFP, N-terminal, kept

[3] = target: T3, Purified full-length untagged NBEAL2 (human, UniProt Q6ZNJ1-1 1-2754)
T3 construct: NBEAL2, human; also called 3xFlag-EGFP-SUMOstar-NBEAL2 after SUMOstar protease; source: FreeStyle 293-F, transiently transfected, purified (GFP-Trap agarose, eluted with SUMOstar protease); not shown: 3xFlag, N-terminal, cleaved; EGFP, N-terminal, cleaved; SUMOstar, N-terminal, cleaved
T3 sequence (Q6ZNJ1 whole entry): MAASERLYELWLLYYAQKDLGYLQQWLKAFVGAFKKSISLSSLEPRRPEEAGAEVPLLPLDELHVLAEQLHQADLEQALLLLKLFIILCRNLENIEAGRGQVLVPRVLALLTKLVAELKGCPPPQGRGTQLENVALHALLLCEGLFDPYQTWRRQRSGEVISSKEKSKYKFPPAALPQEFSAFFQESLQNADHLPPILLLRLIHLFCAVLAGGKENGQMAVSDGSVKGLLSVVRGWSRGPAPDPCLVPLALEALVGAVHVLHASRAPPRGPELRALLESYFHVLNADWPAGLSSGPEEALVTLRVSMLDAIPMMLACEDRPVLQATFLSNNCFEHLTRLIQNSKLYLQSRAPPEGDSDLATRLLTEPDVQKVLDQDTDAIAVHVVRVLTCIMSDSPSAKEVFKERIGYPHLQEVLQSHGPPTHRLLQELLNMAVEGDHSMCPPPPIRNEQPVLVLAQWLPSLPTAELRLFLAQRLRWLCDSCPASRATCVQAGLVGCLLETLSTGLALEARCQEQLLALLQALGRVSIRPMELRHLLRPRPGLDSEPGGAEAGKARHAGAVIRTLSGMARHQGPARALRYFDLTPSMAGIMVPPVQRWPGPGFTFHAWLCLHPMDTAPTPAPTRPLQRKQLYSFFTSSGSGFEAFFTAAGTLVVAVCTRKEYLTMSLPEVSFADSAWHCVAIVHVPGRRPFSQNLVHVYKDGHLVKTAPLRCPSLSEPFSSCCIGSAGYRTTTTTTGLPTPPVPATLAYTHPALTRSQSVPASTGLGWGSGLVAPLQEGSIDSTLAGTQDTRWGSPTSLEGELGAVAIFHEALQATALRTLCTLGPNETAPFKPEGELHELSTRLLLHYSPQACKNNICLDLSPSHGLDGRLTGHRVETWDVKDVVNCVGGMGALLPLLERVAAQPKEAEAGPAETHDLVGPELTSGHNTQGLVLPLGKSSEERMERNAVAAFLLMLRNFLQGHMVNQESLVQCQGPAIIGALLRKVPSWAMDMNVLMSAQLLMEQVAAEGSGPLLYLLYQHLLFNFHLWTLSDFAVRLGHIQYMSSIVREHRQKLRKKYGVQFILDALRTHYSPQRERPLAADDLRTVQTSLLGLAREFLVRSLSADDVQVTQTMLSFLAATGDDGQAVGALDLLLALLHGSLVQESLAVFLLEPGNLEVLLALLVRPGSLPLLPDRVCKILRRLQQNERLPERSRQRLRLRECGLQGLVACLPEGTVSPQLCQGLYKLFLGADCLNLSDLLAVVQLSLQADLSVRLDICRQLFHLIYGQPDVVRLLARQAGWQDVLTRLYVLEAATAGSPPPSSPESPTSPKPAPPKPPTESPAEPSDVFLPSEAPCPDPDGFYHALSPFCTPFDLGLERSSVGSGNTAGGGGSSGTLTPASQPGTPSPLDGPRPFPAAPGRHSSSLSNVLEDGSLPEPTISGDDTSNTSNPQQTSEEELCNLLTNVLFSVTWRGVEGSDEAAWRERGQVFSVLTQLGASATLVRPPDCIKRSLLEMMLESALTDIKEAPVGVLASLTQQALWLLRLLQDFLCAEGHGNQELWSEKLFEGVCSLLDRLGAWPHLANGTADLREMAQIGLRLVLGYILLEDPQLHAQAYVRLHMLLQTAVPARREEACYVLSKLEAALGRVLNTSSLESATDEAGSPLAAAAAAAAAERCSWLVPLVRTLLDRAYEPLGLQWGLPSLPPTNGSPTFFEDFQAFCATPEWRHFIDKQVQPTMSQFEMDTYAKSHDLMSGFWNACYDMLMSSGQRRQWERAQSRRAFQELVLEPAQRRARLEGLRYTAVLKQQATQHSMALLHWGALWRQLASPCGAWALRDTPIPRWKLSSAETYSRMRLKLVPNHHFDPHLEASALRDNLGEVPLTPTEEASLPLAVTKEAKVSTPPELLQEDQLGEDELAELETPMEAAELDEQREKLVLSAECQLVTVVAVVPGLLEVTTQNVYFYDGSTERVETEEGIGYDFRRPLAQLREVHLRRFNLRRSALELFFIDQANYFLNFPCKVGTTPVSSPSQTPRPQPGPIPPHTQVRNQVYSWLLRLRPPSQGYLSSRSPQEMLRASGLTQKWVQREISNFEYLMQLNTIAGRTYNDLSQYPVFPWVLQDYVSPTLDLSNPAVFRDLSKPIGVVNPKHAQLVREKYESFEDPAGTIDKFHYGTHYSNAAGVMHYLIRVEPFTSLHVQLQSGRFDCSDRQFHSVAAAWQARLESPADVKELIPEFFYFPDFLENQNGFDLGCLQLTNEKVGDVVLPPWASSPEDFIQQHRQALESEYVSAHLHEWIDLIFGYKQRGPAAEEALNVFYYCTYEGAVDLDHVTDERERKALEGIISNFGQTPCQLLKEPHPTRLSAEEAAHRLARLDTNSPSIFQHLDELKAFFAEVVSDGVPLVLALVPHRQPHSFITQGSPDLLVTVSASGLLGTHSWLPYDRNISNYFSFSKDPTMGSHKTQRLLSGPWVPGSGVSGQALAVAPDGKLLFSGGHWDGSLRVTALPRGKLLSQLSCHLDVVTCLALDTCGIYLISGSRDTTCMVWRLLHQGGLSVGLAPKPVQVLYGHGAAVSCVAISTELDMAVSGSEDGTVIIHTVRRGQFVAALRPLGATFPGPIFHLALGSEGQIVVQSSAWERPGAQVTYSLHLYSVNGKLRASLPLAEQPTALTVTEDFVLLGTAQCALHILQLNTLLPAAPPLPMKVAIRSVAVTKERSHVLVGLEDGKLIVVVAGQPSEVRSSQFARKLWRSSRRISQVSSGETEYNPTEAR

T2 sequence (Q6ZNJ1 1792-2754): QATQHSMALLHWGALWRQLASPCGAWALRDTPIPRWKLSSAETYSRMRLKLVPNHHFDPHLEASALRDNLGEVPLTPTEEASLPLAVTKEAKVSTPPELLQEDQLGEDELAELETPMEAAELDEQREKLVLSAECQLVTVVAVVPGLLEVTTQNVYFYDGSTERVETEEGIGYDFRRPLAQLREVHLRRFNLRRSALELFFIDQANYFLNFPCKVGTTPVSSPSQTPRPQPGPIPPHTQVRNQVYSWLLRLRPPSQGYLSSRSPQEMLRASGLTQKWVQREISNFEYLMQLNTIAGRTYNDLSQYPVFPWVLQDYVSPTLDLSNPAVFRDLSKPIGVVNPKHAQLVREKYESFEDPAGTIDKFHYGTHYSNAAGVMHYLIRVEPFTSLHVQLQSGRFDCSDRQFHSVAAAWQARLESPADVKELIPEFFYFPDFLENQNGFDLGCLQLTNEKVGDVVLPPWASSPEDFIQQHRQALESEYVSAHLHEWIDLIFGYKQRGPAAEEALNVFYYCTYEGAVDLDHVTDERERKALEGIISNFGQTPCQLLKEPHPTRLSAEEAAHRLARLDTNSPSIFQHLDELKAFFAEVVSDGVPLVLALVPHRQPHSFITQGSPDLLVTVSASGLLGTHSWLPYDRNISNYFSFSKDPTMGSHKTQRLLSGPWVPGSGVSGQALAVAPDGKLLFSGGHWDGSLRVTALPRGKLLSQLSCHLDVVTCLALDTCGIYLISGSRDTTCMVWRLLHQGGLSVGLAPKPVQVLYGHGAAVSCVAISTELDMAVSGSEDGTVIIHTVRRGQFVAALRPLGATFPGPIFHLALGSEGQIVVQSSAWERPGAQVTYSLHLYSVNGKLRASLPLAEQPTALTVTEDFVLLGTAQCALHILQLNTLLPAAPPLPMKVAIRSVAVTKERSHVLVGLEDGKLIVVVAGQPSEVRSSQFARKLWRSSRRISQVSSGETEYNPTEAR

binding result [1]: binds
binding result [2]: binds
binding result [3]: binds
B1: GST-CTLA4 (201–215) (domain or fragment, human, UniProt P16410 201-215, looked up)
chain: YVKMPPTEPECEKQF
notes: source: E. coli BL21(DE3), purified on Glutathione Sepharose 4B beads

Reference: article PMC11554844, “BEACH domain proteins function as cargo-sorting adaptors in secretory and endocytic pathways” (The Journal of Cell Biology, 2024)
